B1: Zyxin (Homo sapiens), Q15942 (parent)
chain: MAAPRPSPAISVSVSAPAFYAPQKKFGPVVAPKPKVNPFRPGDSEPPPAPGAQRAQMGRVGEIPPPPPEDFPLPPPPLAGDGDDAEGALGGAFPPPPPPIEESFPPAPLEEEIFPSPPPPPEEEGGPEAPIPPPPQPREKVSSIDLEIDSLSSLLDDMTKNDPFKARVSSGYVPPPVATPFSSKSSTKPAAGGTAPLPPWKSPSSSQPLPQVPAPAQSQTQFHVQPQPQPKPQVQLHVQSQTQPVSLANTQPRGPPASSPAPAPKFSPVTPKFTPVASKFSPGAPGGSGSQPNQKLGHPEALSAGTGSPQPPSFTYAQQREKPRVQEKQHPVPPPAQNQNQVRSPGAPGPLTLKEVEELEQLTQQLMQDMEHPQRQNVAVNELCGRCHQPLARAQPAVRALGQLFHIACFTCHQCAQQLQGQQFYSLEGAPYCEGCYTDTLEKCNTCGEPITDRMLRATGKAYHPHCFTCVVCARPLEGTSFIVDQANRPHCVPDYHKQYAPRCSVCSEPIMPEPGRDETVRVVALDKNFHMKCYKCEDCGKPLSIEADDNGCFPLDGHVLCRKCHTARAQT

Variants of: B1
Details: with enah_human ENAH

Variant | effect of a mutation on the interaction
F71A | decreasing interaction
F71A;F93A | decreasing interaction

Continued, values first:

effect of a mutation on the interaction | Variant
decreasing interaction | F71A;F93A;F104A
decreasing interaction | F93A

Variants of: B1
Details: with enah_mouse Enah

effect of a mutation on the interaction | Variant
disrupting interaction | F71A

Reference: IntAct's records for PubMed 10801818
